Results from paper PMC7262672.
Like-named read-outs stand apart in the source and are kept apart here.

What was measured:
[1] = target: E. coli scaffold protein IscU (Escherichia coli) (UniProt P0ACD4); test: non-reducing SDS-PAGE with densitometry
[2] = target: E. coli scaffold protein IscU (Escherichia coli) (UniProt P0ACD4); test: native MS
[3] = target: E. coli cysteine desulfurase IscS (Escherichia coli) (UniProt P0A6B7); test: native MS
[4] = target: E. coli scaffold protein IscU (Escherichia coli) (UniProt P0ACD4); test: native MS; remark: listed apart in the source

UniProt P0A6B7, sequence (P0A6B7 whole entry): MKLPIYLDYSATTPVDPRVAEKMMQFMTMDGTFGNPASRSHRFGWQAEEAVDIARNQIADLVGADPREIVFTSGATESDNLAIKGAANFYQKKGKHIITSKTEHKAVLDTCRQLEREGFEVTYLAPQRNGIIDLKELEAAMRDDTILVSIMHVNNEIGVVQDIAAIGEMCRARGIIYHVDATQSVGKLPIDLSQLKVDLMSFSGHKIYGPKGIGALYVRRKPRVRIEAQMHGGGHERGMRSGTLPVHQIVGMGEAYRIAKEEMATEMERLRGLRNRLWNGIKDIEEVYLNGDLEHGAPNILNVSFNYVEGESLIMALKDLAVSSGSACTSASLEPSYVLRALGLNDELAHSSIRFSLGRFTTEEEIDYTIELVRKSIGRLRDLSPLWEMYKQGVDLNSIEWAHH

percent dimer [1]: 65% | percent dimer [2]: 59% | percent dimer (of the monomer-to-dimer ratio) [2]: 22% | stoichiometry N [2]: 2 | fraction of IscS2 lacking IscU [3]: 11% | fraction of the IscU2–IscS2 complex [3]: 94% | fraction of the IscU2–IscS2 species [3]: 86% | fraction of the IscU-IscS2 complex [3]: 47% | fraction of the IscU-IscS2 species [3]: 6% | stoichiometry N (IscU per IscS dimer) [3]: 2 | percent dimer (of the monomer-to-dimer ratio) [4]: 14%
Substance: E. coli scaffold protein IscU (from UniProt P0ACD4 1-128) (natural protein)
